Biological target: functional human IL-4 receptor (hIL-4R) on TF-1 cells (human) (UniProt P24394)
Experiment: displacement of I^125-hIL-4 from TF-1 cells

IC50: 0.2 nM | percent of the I^125-hIL-4 binding displaced: 70%
B1: mouse IL-13 (mouse P600), E. coli-derived (ligand)
chain: APGPVPRSVSLPLTLKELIEELSNITQDQTPLCNGSMVWSVDLAAGGFCVALDSLTNISNCNAIYRTQRILHGLCNRKAPTTVSSLPDTKI
